Results reported in patent publication US7026125, “Heterodimers of retinoid X receptors (RXRS) and other steroid hormone receptors” (Ligand Pharmaceuticals).

Key:
RARα/RXRα heterodimer = RARα/RXRα heterodimer (Homo sapiens, UniProt P10276;P19793 P10276:1-462,P19793:1-462); assay: EMSA; conditions: label: 32P
Protocol: (§1) (a) In vitro synthesized TRα, TRβ, RARα, RARβ, RARγ and TRα2 receptor proteins were preincubated either with (+) or without (−) equal amount of in vitro synthesized RXRα protein at room temperature for 10 minutes. Following this preincubation, the reaction mixtures were incubated with ^32p-labelled palindromic TRE (for 1 sequence see FIG. 2a) and analyzed by gel retardation assay as described in Experimental Procedures. […] As a control, equal amounts of TRα and RARα proteins were also mixed and incubated with labelled TRE.
(§2) In vitro translated receptor protein (1 to 5 μl depending on the translation efficiency) was incubated with the ^32P-labeled oligonucleotides in a 20-μl reaction mixture containing 10 mM hepes buffer, pH 7.9, 50 mM KCl, 1 mM DTT, 2.5 mM MgCl, 10% glycerol, and 1 μg of poly(dI-dC) at 25° C. for 20 minutes. In general, relative low receptor concentration was used to obtain the clear effect of heterodimer formation. The reaction mixture was then loaded on a 5% nondenaturing ployacrylamide gel containing 0.5×TBE (1×TBE=0.089 M Tris-borate, 0.089 M boric acid, and 0.002 M EDTA). To analyze the effect of RXRα or the nuclear proteins on receptor DNA binding activity, RXRα or the cell extracts were preincubated with receptor protein at room temperature for 10 minutes before performing the DNA binding assay. When antibody was used, 1 μl of the antiserum was incubated with the specific translation products at room temperature for 45 minutes before performing the experiments described above.

RARβ/RXRα heterodimer = RARβ/RXRα heterodimer (UniProt P10826-2;P19793 P10826-2:1-448,P19793:1-462); assay: EMSA; conditions: label: 32P
Chain of RARβ/RXRα heterodimer (P10826 other isoform, or with tags, fused parts or gaps, chain 1 of 2): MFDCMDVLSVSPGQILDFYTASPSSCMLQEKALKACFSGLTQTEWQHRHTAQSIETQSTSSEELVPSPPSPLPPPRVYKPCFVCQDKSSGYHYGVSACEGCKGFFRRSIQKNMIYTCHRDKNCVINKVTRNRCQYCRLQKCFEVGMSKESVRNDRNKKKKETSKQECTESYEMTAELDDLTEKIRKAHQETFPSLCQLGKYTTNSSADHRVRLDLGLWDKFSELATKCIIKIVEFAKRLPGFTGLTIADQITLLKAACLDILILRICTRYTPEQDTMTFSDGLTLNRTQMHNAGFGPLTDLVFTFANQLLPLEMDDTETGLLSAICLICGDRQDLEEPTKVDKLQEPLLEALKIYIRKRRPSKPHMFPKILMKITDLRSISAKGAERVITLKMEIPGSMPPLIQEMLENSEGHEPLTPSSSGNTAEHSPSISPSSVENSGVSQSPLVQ
Chain of RARβ/RXRα heterodimer (P19793 whole entry, chain 2 of 2): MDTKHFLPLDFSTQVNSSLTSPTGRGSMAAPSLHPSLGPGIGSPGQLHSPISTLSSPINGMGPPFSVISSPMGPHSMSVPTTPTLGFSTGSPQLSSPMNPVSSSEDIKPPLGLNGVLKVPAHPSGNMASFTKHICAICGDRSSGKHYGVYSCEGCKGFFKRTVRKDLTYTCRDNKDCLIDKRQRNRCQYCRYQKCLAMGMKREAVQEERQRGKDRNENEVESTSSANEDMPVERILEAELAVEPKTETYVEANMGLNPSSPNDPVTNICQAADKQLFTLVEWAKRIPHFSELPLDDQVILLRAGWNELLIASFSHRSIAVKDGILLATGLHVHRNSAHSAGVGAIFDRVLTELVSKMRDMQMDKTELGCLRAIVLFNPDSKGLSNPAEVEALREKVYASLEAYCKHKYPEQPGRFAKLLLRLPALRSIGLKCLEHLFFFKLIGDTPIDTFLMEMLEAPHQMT
Protocol: as §1, §2

TRβ = biological target: T1, TRβ (UniProt P10828 P10828:1-461); assay: EMSA; conditions: label: 32P
T1 sequence: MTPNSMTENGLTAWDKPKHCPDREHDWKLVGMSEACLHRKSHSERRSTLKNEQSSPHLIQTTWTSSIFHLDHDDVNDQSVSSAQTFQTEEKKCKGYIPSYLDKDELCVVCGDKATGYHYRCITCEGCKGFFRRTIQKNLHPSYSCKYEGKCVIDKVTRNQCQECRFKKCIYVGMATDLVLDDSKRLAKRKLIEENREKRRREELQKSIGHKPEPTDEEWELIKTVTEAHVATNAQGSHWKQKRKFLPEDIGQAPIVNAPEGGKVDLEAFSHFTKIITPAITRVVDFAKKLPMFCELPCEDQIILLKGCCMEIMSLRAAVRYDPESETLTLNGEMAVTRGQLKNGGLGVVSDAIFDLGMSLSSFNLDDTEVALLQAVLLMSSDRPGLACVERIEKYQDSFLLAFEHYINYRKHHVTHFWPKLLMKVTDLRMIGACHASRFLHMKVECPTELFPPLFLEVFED
Protocol: as §1, §2

RARγ/RXRα heterodimer = RARγ/RXRα heterodimer (UniProt P13631;P19793 P13631:1-454,P19793:1-462); assay: EMSA; conditions: label: 32P
Chain of RARγ/RXRα heterodimer (P13631 whole entry, chain 1 of 2): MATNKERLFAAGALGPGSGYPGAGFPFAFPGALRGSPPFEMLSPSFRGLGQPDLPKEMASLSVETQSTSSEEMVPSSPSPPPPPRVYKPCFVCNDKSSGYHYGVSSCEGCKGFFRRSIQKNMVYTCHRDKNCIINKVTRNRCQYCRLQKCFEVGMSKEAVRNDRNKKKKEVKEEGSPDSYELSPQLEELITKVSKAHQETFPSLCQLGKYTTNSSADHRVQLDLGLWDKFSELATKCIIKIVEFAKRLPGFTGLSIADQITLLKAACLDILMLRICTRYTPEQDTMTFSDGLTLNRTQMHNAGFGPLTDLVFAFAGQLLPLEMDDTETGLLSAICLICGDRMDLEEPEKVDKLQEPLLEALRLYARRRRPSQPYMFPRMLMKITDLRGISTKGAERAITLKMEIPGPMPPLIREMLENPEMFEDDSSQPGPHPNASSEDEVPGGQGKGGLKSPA
Chain of RARγ/RXRα heterodimer (P19793 whole entry, chain 2 of 2): as the sequence (P19793 whole entry, chain 2 of 2) above
Protocol: as §1, §2

TRαm3 = biological target: T2, TRαm3 (UniProt P10827-2 P10827-2:1-167, C-terminal deletion of 243 aa); assay: EMSA; several complexes; conditions: label: 32P
T2 sequence: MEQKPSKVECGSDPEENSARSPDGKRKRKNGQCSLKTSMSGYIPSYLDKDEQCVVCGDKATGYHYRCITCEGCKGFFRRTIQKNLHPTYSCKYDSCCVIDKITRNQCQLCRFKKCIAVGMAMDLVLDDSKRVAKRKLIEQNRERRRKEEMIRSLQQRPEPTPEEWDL
Protocol: as §2

[1] = biological target: Flag-RARγ/RXRα heterodimer (UniProt P13631;P19793 P13631:1-454,P19793:1-462); assay: EMSA; inhibited by anti-Flag; conditions: tags: N-terminal Flag on RARγ; label: 32P
Chain of Flag-RARγ/RXRα heterodimer (P13631 whole entry, chain 1 of 2): as the sequence (P13631 whole entry, chain 1 of 2) above
Chain of Flag-RARγ/RXRα heterodimer (P19793 whole entry, chain 2 of 2): as the sequence (P19793 whole entry, chain 2 of 2) above
Protocol: as §2

TRβ/RXRα heterodimer = TRβ/RXRα heterodimer (UniProt P10828;P19793 P10828:1-461,P19793:1-462); assay: EMSA; upshifted complex; conditions: label: 32P
Chain of TRβ/RXRα heterodimer (P19793 whole entry, chain 2 of 2, one chain of several): as the sequence (P19793 whole entry, chain 2 of 2) above
Protocol: as §1
as §2, with “When antibody was used, 1 μl of the antiserum was incubated with the specific translation products at room temperature for 45 minutes before performing the experiments described above.” left out

RARγ/RXRαm4 = RARγ/RXRαm4 (UniProt P13631;P19793 P13631:1-454,P19793:61-462, RXRα N-terminal deletion of 61 aa); assay: EMSA; faster migrating than RXRαm3 complex; conditions: label: 32P
Chain of RARγ/RXRαm4 (P13631 whole entry, stated change not applied, chain 1 of 2): as the sequence (P13631 whole entry, chain 1 of 2) above
Chain of RARγ/RXRαm4 (P19793 62-462, stated change not applied, chain 2 of 2): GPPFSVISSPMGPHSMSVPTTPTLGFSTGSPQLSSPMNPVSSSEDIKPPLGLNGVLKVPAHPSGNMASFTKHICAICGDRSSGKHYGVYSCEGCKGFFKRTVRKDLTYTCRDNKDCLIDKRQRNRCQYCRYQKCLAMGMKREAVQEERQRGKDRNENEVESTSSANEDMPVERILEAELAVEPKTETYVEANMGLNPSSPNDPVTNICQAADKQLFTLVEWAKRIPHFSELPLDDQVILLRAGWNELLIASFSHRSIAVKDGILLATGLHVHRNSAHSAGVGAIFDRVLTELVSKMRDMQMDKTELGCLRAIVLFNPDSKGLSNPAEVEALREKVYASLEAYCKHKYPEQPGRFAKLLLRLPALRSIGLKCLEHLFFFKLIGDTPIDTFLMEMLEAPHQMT
Protocol: as §2

TRα/RXRα heterodimer = TRα/RXRα heterodimer (UniProt P10827-2;P19793 P10827-2:1-410,P19793:1-462); assay: EMSA; at least an order of magnitude more effective than either alone; T3 or RA no clear effect; conditions: label: 32P
Chain of TRα/RXRα heterodimer (P19793 whole entry, one chain of several): as the sequence (P19793 whole entry, chain 2 of 2) above
Protocol: as §1
as §2, with “When antibody was used, 1 μl of the antiserum was incubated with the specific translation products at room temperature for 45 minutes before performing the experiments described above.” left out

TRα/RXRαm4 = TRα/RXRαm4 (UniProt P10827-2;P19793 P10827-2:1-410,P19793:61-462, RXRα N-terminal deletion of 61 aa); assay: EMSA; faster migrating than RXRαm3 complex; conditions: label: 32P
Chain of TRα/RXRαm4 (P19793 62-462, stated change not applied, one chain of several): as the sequence (P19793 62-462, stated change not applied, chain 2 of 2) above
Protocol: as §2, with “In” for “In vitro translated receptor protein (1 to 5 μl depending on the translation efficiency) was incubated with the ^32P-labeled oligonucleotides in a 20-μl reaction mixture containing 10 mM hepes buffer, pH 7.9, 50 mM KCl, 1 mM DTT, 2.5 mM MgCl, 10% glycerol, and 1 μg of poly(dI-dC) at 25° C. for 20 minutes. In”

[2] = biological target: Flag-TRα/RXRα heterodimer (UniProt P10827-2;P19793 P10827-2:1-410,P19793:1-462); assay: EMSA; inhibited by anti-Flag; conditions: tags: N-terminal Flag on TRα; label: 32P
Chain of Flag-TRα/RXRα heterodimer (P19793 whole entry, one chain of several): as the sequence (P19793 whole entry, chain 2 of 2) above
Protocol: (b) Effect of anti-Flag-TRα antibody on binding of the slow migrating complex. In vitro synthesized Flag-TRα (F-TRα) protein was incubated with in vitro synthesized RXRα protein in the presence or absence of anti-Flag antibody. The effect of antibody on DNA binding of the slow migrating complex was analyzed as described in FIG. 2a. For control, the receptor mixture was also incubated with preimmune serum (NI). The effect of anti-Flag antibody on DNA binding of Flag-RXRα, RXRα, Flag-TRα, and TRα was also analyzed. For comparison, anti-Flag antibody/Flag-RXRα-TRα interaction was run on the same gel (lanes 7–10).
In vitro translated receptor protein (1 to 5 μl depending on the translation efficiency) was incubated with the ^32P-labeled oligonucleotides in a 20-μl reaction mixture containing 10 mM hepes buffer, pH 7.9, 50 mM KCl, 1 mM DTT, 2.5 mM MgCl, 10% glycerol, and 1 μg of poly(dI-dC) at 25° C. for 20 minutes. In general, relative low receptor concentration was used to obtain the clear effect of heterodimer formation. The reaction mixture was then loaded on a 5% nondenaturing ployacrylamide gel containing 0.5×TBE (1×TBE=0.089 M Tris-borate, 0.089 M boric acid, and 0.002 M EDTA). […]

Measured: binding result

Chain of RARα/RXRα heterodimer (P10276 whole entry, chain 1 of 2): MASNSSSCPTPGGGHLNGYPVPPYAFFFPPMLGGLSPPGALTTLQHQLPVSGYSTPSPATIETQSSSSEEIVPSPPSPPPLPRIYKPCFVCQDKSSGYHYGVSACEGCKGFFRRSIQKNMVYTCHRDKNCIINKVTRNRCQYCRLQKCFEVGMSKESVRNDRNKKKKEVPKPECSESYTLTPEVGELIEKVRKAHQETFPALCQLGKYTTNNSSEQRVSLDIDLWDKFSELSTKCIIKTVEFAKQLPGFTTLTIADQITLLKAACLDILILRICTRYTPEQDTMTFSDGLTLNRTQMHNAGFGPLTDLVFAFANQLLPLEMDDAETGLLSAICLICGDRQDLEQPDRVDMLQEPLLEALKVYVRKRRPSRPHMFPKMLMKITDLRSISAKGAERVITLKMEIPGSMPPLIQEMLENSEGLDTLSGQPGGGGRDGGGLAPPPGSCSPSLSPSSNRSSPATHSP
Chain of RARα/RXRα heterodimer (P19793 whole entry, chain 2 of 2): as the sequence (P19793 whole entry, chain 2 of 2) above

B1: palindromic TRE (dsDNA)
DNA 1: GATCTCAGGTCATGACCTGAGATC
DNA 2: GATCTCAGGTCATGACCTGAGATC
binds: RARα/RXRα heterodimer | RARβ/RXRα heterodimer | TRβ | RARγ/RXRα heterodimer | TRαm3 | [1] | TRβ/RXRα heterodimer | RARγ/RXRαm4 | TRα/RXRα heterodimer | TRα/RXRαm4 | [2]
